The target in assay [1] is human α-thrombin (recombinant) (human) (UniProt P00734). As to the kind of experiment: cell-based or functional assay.
Assay [2] shares this target. Description: assay not named.

In patent publication US20190002511A1 one finds time to observe clot formation in blood tubes, 300 µM peptide and Ki data, which are given here for one substance.

The term Ki denotes the dissociation constant of the complex between target and ligand, obtained from inhibition or displacement. On to β-variegin (peptide), for which the time to observe clot formation in blood tubes, 300 µM peptide in assay [1] was 4 h. For the same substance, the Ki in assay [2] was more than 30 nM.
